The text below walks through data of US20250092146A1, “ANTI-CCR8 ANTIBODIES, CONJUGATES, AND USES THEREOF” (Abilita Bio, Inc., priority 2023, published 2025).

Data set [1] deals with T1, HuT-78 cells that naturally express human CCR8 (Homo sapiens, UniProt P51685).
T1 construct: HuT-78 cells that naturally express human CCR8 were used as target cells; endogenous in cells; host or cells: HuT-78
Put plainly: Flow cytometry binding of yeast-display optimized VHH-Fc antibodies to HuT-78 cells. To be noted: Table 13; for EC50: clones tested as VHH-Fc fusions (human IgG1 Fc), HuT-78 cells; for Normalized Bmax (%): normalized to VHH-1 or VHH-2 depending on clone family. The text has this: Top VHH sequences were chosen from the FACS sorted populations based on an analysis of improved binding performance relative to the parental sequences and evidence of sequence enrichment by NGS. Candidate VHH were then cloned as VHH-Fc fusions to the short hinge of the IgG1 Fc domain (SEQ ID NO: 34), expressed in HEK293 cells as described earlier and purified for binding evaluation. Bmax values are shown as normalized to VHH-1 or VHH-2 depending on the clone family. […] Mutations are referenced by position according to the IMGT definition.

Data set [2] deals with T2, hCCR8 (Homo sapiens, UniProt P51685).
T2 construct: expressed in transfected cells
T2 sequence (P51685 whole entry): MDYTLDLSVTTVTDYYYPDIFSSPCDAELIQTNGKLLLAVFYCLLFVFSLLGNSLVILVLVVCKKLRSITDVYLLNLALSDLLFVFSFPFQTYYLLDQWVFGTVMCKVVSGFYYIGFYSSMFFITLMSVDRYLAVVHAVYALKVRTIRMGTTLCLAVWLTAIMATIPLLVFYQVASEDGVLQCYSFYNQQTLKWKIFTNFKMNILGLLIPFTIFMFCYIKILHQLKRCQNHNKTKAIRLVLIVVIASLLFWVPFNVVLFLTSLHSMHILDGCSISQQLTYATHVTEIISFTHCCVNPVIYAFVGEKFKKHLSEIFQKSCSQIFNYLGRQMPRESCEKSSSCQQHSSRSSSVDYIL
Put plainly: Flow cytometry binding of VHH-Fc fusion antibodies to hCCR8 on stably transfected HEK293 cells. To be noted: for binding to hCCR8 expressed on HEK293 cells (in words): as Fc fusion antibodies. Here is the method: VHH-Fc fusion antibodies were evaluated for their ability to bind to hCCR8 on stably transfected HEK293 cells by means of flow cytometry. Cells were incubated with different concentrations of the bivalent VHH-Fc fusions for 60 minutes at 4° C., followed by two washes with FACS buffer, followed by 30 minutes incubation at 4° C. with the Zenon R-Phycoerythrin Anti-human IgG (ThermoFisher Scientific, #Z-25455), and two additional washing steps. Data were plotted and fit using GraphPad Prism software. EC50 and Bmax values individual antibodies were calculated from the resulting dose-response curves. Bivalent VHH-Fc fusions (Seq ID NOs: 31, 33, and 87-103) of 19 different VHH domains (SEQ ID NOs: 27, 28, and 70-86) were tested for cell binding and results are shown in Table 7. […]
(§1) VHH-Fc fusion DNA constructs were then generated comprising encoding humanized VHH sequences (SEQ ID NOs: 106-111) fused in frame to the human IgG1 (SEQ ID NO: 34) directly to the short hinge sequence in the pFuse expression vector, and were expressed, purified and analyzed for binding to HEK293 cells expressing human CCR8 as in Example 5. Binding curves for VHH-Fc antibodies comprised of parental VHH-1 and the humanized VHH derivatives VHH-1.2-Fc and VHH-1.3-Fc are shown in FIG. 9A. Binding curves for VHH-Fc antibodies comprised of parental VHH-2 and the humanized VHH derivatives VHH-2-Fc, VHH-2.2-Fc and VHH-2.3-Fc, are shown in FIG. 9B. Cell binding EC50 values, normalized Bmax (relative to respective parental clone) data and humanizing mutations are shown in Table 10 below.
Approaches such as in vitro affinity maturation and rational mutagenesis can be performed to regain binding affinity and/or stability lost through humanization. In vitro affinity maturation generally involves building and amino acid substitution library where amino acid positions are varied across the CDRs and/or framework at a defined set of positions using sets of amino acids chosen to introduce new chemical diversity. The paratope residues within the CDR regions are of course key to antigen binding and care must be taken not to disrupt important structures while attempting to evolve improve antibody behavior. One approach to identify positions that are important to the maintenance of binding properties is to perform paratope mapping using single scanning alanine substitutions across antibody CDR regions. In this approach, residues that are critical to the maintenance of antibody binding to the antigen can be identified and at the same time permissive sites can be identified where it may be possible to make substitutions of other amino acids desirable for subsequent affinity maturation library construction. Site directed mutagenesis was used to make single alanine substitutions at each residue in the CDRs of VHH-1 (SEQ ID NO: 27) and VHH-2 (SEQ ID NO: 28). Changes in VHH-1 CDR amino acids to alanine are indicated in Table 11 (SEQ ID NOs: 112-137) and for VHH-2 CDRs (SEQ ID NO: 138-162) in Table 12. Mutation positions and residue changes to alanine with respect to the in the parental VHH sequences are referenced by their IMGT position. VHH domains containing the indicated modified CDR-1, CDR-2 or CDR-3 domains were used to construct Fc fusions by direct grafting to the short hinge of the human Fc domain (SEQ ID NO: 34). VHH-Fc constructs were expressed, purified and analyzed for binding to HEK293 cells expressing hCCR8 and the results are reported in Table 11 and Table 12. EC50 values are reported for each Fc fusion antibody containing a modified CDR, along with its respective Bmax value normalized to the to the matched wild type VHH-1-Fc or VHH-2-Fc fusion antibody.

A short description of data set [3]: Production and purification of humanized VHH-Fc from cells. The settings on record: most humanized variants.
From the text: as §1
Humanization within the framework regions of VHH and other antibodies is known to often have negative impacts of on protein properties such as destabilization of the VHH fold or loss of binding affinity. This is most common when humanized versions of antibodies are constructed by “CDR grafting”, where the individual CDRs are transferred directly to a fully human framework.

The target of data set [4] is T2, hCCR8. Put plainly: Flow cytometry binding of purified VHHs to HEK293 cells expressing hCCR8. The settings on record: monovalent VHH, FIG. 1. Here is the method: Recombinant cells expressing hCCR8 were resuspended to a final concentration of 1.0×10^6 cells/ml in FACS buffer. Surface expression of hCCR8 on transiently transfected HEK293 cells was confirmed by flow cytometry of HEK293 cells stained with PE anti-hCCR8 (Clone 433H, BD Biosciences, #566897) antibody. Dilutions of purified VHHs were incubated with cells for 60 min. Individual samples were distributed into 96-well v-bottom plates and incubated for one hour at 4° C. Bound VHH were then detected with an anti-VHH specific antibody (Goat anti-alpaca VHH, Jackson ImmunoResearch, #128-605-232). […] Binding was determined in parallel on HEK293 cells stably expressing the closely related receptor hCCR7 (SEQ ID NO: 41), as control for binding specificity.
For orientation: A flow cytometer gives signals particle by particle.

Data set [5] has as its system MC38 mouse colon cancer cells. Put plainly: MC38 tumor growth inhibition study in human CCR8 transgenic mice. The data set is classed as in vivo. The settings on record: 30 mg/kg IV 3 times per week, Day 16, p=0.0169. The method, then:
Human CCR8 transgenic (hCCR8-tg) mice (#110096, Biocytogen, China) were inoculated with MC38 mouse colon cancer cells subcutaneously. After the average tumor size reached approximately 150 mm3, mice were randomized based on tumor size and treatment was initiated. Mice were treated IV 3 times per week with 30 mg/kg VHH-1-mFc (SEQ ID NO: 239) or an IgG2a Fc control (recombinant IgG2a Fc, #BE0097, BioXcell). Tumor volume was measured twice per week using a caliper, and the volume expressed in mm3 using the formula: V (mm3)=(a×b2)/2 where a and b were the long and short diameters of the tumor, respectively. The tumor size was then used for calculations of tumor growth inhibition (T/C) values (where T was the treatment group and C is the control group). The T/C value (in percent) is an indication of antitumor effectiveness; T and C were the mean volume of the treated and control groups, respectively, on a given day. […] To determine whether group treated with various test articles had statistically significant anti-tumor effects compared to the mouse IgG2a Fc control, the MC38 tumor volumes were analyzed by one-way ANOVA and multiple comparison test at day 16. […] In addition, the tumor growth inhibition (TGI) was also calculated during the study until Day 16. On Day 16, the TGIs for VHH-1-mFc were 50.3%, (p=0.0169).

T1 sequence (P51685 whole entry): as above

B1: VHH-2: llama anti-hCCR8 VHH, SEQ ID NO: 28; in Tables 12 and 13 tested as human IgG1 Fc fusion (protein)
VHH: QVQLQESGGGLVQAGGSLRLTCAVSGSTSTINRFAWYRQAPGKQRELVAATSSRTSPNYADSVKGRFRFSRDNARSAVYLQMDNLRPEDTAVYFCQARMAMGSSQVVYWGLGTQVTVSS
Turning to B1, in data set [1], the EC50 worked out at 0.24 nM and the “Normalized Bmax (%)” value turned out to be 100.0%. This molecule yielded an EC50 in data set [2] (Table 12, VHH-2 CDR alanine mutants as human Fc fusions, HEK293 hCCR8) of 1.3 nM. In data set [2] (Table 12, normalized to wild type VHH-2-Fc), the “% Bmax” value turned out to be 100%.

B2: VHH-1.2: humanized VHH-1, version 2, SEQ ID NO: 107 (protein)
VHH: EVQLVESGGGLVQPGGSLRLSCAASGSTSSIRRIGWYRQAPGKGLEWVARFSSGGGTNYADSVKGRFTISGDNSKNTMYLQMNSLRAEDTAVYYCSARRLLGTSRVDYWGQGTTVTVSS
Take B2: the “binding to hCCR8 expressed on HEK293 cells (in words)” value (shortened to “binding to hCCR8 expressed”) in data set [2] is “maintained their hCCR8 binding properties”.

B3: VHH-1.3: humanized VHH-1, version 3, SEQ ID NO: 108; Table 13 tested as Fc fusion (protein)
VHH: EVQLVESGGGLVQPGGSLRLSCAASGSTSSIRRIGWYRQAPGKGRELVARFSSGGGTNYADSVKGRFTISGDNSKNTMYLQMNSLRAEDTAVYYCSARRLLGTSRVDYWGQGTTVTVSS
Take B3: in data set [1], the 50% effective concentration (EC50) was determined as 5.46 nM and the “Normalized Bmax (%)” value turned out to be 88.6%. Besides, in data set [2], the “binding to hCCR8 expressed” value was “maintained their hCCR8 binding properties”.

B4: VHH-1.1: humanized VHH-1, version 1, SEQ ID NO: 106 (protein)
VHH: EVQLVESGGGLVQPGGSLRLSCAASGSTSSIRRIGWVRQAPGKGLEWVSRFSSGGGTNYADSVKGRFTISRDNSKNTLYLQMNSLRAEDTAVYYCAKRRLLGTSRVDYWGQGTTVTVSS
For the molecule B4, the “stability / producibility after humanization” value in data set [3] was “could not be produced and purified from cells”.

B5: VHH-2.2: humanized VHH-2, version 2, SEQ ID NO: 110 (protein)
VHH: EVQLVESGGGLVQPGGSLRLSCAVSGSTSTINRFAWYRQAPGKGLEWVAATSSRTSPNYADSVKGRFTFSRDNSKNTVYLQMNSLRAEDTAVYYCQARMAMGSSQVVYWGQGTTVTVSS
For B5, the “binding to hCCR8 expressed” value in data set [2] was “maintained their hCCR8 binding properties”.

B6: VHH-2.3: humanized VHH-2, version 3, SEQ ID NO: 111; Table 13 tested as Fc fusion (protein)
VHH: EVQLVESGGGLVQPGGSLRLSCAVSGSTSTINRFAWYRQAPGKGRELVAATSSRTSPNYADSVKGRFTFSRDNSKNTVYLQMNSLRAEDTAVYYCQARMAMGSSQVVYWGQGTTVTVSS
On to B6, for which, in data set [1], the midpoint of the response, the EC50, lay at 1.19 nM and the “Normalized Bmax (%)” value is 88.8%. For the same molecule, the “binding to hCCR8 expressed” value in data set [2] is on record as “maintained their hCCR8 binding properties”.

B7: VHH-2.1: humanized VHH-2, version 1, SEQ ID NO: 109 (protein)
VHH: EVQLVESGGGLVQPGGSLRLSCAASGSTSTINRFAWVRQAPGKGLEWVSATSSRTSPNYADSVKGRFTISRDNSKNTLYLQMNSLRAEDTAVYYCAKRMAMGSSQVVYWGQGTTVTVSS
Turning to B7, the “stability / producibility after humanization” value in data set [3] is “could not be produced and purified from cells”.

B8: VHH-3: llama anti-hCCR8 VHH, SEQ ID NO: 29 (protein)
VHH: QVQLQESGGGLVQAGGSLRLSCVASGSTSSIRRIGWYRQAPGKQRELVARFSSGGGTNYADFVKGRFTISGDNAKNTMYLQMNSLKPEDTAVYYCGARRLLGTSRVDYWGQGTQVTVSS
For B8, the “binding specificity hCCR8 vs human CCR7” value in data set [4] is “specific binding to hCCR8 overexpressed in HEK293 cells and not to human CCR7”.

B9: VHH-1-mFc: VHH-1 fused to hinge of mouse IgG2a Fc, SEQ ID NO: 239 (protein)
chain: QVQLQESGGGLVQAGGSLRLSCVASGSTSSIRRIGWYRQAPGKQRELVARFSSGGGTNYADFVKGRFTISGDNAKNTMYLQMNSLKPEDTAVYYCSARRLLGTSRVDYWGQGTQVTVSSEPRGPTIKPCPPCKCPAPNLLGGPSVFIFPPKIKDVLMISLSPIVTCVVVDVSEDDPDVQISWFVNNVEVHTAQTQTHREDYNSTLRVVSALPIQHQDWMSGKEFKCKVNNKDLPAPIERTISKPKGSVRAPQVYVLPPPEEEMTKKQVTLTCMVTDFMPEDIYVEWTNNGKTELNYKNTEPVLDSDGSYFMYSKLRVEKKNWVERNSYSCSVVHEGLHNHHTTKSFSRTPGK
In the case of B9, in data set [5], the “fold smaller tumor volume than isotype control” value is given as 1.8 fold and the “tumor growth inhibition (TGI)” value worked out at 50.3%.

What is called EC50 is the midpoint of the concentration-response curve.
